Among the data in PMC7519303 are stoichiometry N values, retold here.

This assay deals with SgmX-Strep (C-terminal Strep-tagged SgmX variant) (M. xanthus). Kind of assay: SDS/PAGE of the purified protein; purified SgmX-Strep; band of ~233 kDa, heat- and detergent-resistant dimer.

The stoichiometry N is a count of units in the complex or per binding partner.

With “SgmX-Strep (C-terminal Strep-tagged SgmX variant) (natural protein)”, the stoichiometry N was 2.
